Where no end group is shown, it is not given here. [ ]: non-standard residue; d: D form. I2aa = indolizidin-2-one amino acid (2-oxo-3-amino-azabicyclo[4.3.0]nonane-9-carboxylic acid), a dipeptide surrogate; dOrn = NCCC[C@@H](N)C(=O)O
How the values were obtained:
[1] = molecular target: IL-1R/IL-1RacP receptor (cells or tissue whose species is not stated); experiment: cell-based or functional assay
[2] = molecular target: IL-1R/IL-1RacP receptor on porcine cells and vessels (porcine (piglet)); experiment: cell-based or functional assay

Chain of IL-1R/IL-1RacP receptor (cells or tissue whose species is not stated) (P14778 whole entry, chain 1 of 2): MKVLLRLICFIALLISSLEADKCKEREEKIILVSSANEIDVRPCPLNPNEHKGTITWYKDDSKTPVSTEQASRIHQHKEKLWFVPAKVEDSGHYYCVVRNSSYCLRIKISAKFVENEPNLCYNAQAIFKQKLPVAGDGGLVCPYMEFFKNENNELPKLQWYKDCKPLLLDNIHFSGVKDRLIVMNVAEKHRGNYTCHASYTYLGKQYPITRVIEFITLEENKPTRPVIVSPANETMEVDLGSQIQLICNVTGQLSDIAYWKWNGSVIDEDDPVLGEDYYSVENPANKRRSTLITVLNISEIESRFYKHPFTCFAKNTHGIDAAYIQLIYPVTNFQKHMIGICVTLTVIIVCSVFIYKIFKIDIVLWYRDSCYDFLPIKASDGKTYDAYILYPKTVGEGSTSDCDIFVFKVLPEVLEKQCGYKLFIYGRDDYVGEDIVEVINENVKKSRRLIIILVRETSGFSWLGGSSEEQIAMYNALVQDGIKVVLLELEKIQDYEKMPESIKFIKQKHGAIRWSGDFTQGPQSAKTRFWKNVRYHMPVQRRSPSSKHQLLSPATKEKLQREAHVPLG
Chain of IL-1R/IL-1RacP receptor (cells or tissue whose species is not stated) (Q9NPH3 whole entry, chain 2 of 2, further chain): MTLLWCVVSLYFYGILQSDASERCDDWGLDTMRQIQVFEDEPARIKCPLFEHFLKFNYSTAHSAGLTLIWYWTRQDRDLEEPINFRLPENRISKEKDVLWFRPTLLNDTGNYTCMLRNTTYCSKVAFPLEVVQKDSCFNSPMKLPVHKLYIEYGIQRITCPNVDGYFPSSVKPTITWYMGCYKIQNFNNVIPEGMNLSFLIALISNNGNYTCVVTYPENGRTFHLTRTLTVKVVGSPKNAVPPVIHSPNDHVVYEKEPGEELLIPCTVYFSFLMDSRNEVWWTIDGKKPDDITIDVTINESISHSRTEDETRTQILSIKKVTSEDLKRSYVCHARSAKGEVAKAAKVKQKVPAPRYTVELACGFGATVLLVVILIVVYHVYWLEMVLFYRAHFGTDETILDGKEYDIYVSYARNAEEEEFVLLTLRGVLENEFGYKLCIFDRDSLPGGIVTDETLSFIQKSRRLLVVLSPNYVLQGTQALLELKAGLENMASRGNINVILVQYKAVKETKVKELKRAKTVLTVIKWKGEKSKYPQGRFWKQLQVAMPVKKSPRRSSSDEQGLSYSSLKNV

Row | Binder | IC50 (FIG. 26; assay not given) [1] [nM] | efficacy (FIG. 26; assay not given) [1] [%] | IC50, IL-1-induced PGE2 synthesis, endothelial cells [2] [nM] | fold potency against API-101.107, IL-1-induced PGE2 synthesis, endothelial cells [2] [fold] | activity (FIG. 26; assay not given) [1] [pM]
1 | [dOrn][dY]X[dE][dL][dA] (not fully specified (residue 3); printed as (D-orn)y[R-I2aa]ela) [TTI-101.125] | 0.09 | 100 |  |  | 
2 | [dR][dY]X[dE][dL] (not fully specified (residue 3); printed as ry[R-I2aa]el) [TTI-101.124] | 2400 | 100 |  |  | 
3 | [dR][dY][I2aa][dE][dL][dA]-NH2 [API-101.110] |  |  | 0.0002 | 10 | 10

Reference: patent publication US20060094663A1
